Patent US20160039904A1, “STABILIZED SINGLE HUMAN CD4 DOMAINS AND FUSION PROTEINS” (priority 2013, published 2016)

Assays:
[1] = molecular target: HIV-1 Env of isolate KNH1144.EC1 (HIV-1); test: cell-based or functional assay
[2] = molecular target: HIV-1 Env of isolate CAM0015BBY.EC3 (HIV-1); test: cell-based or functional assay
[3] = molecular target: HIV-1 Env of isolate GS-015.EC12 (HIV-1); test: cell-based or functional assay
[4] = molecular target: HIV-1 Env of isolate N1 1046.e3 PV (HIV-1); test: cell-based or functional assay
[5] = molecular target: HIV-1 Env of isolate KNH1088.EC5 (HIV-1); test: cell-based or functional assay
[6] = molecular target: HIV-1 Env of isolate CM240.EC1 (HIV-1); test: cell-based or functional assay
[7] = molecular target: HIV-1 Env of isolate 57128.VRC18 (HIV-1); test: cell-based or functional assay
[8] = molecular target: HIV-1 Env of isolate 55815.EC3 (HIV-1); test: cell-based or functional assay
[9] = molecular target: HIV-1 Env of isolate PBL286.VRC36aPV (HIV-1); test: cell-based or functional assay
[10] = molecular target: HIV-1 Env of isolate BZ167.ec9 (HIV-1); test: cell-based or functional assay
[11] = molecular target: HIV-1 Env of isolate Bal.EC1 TC (HIV-1); test: cell-based or functional assay
[12] = molecular target: HIV-1 Env of isolate A07412VRC12A (HIV-1); test: cell-based or functional assay
[13] = molecular target: gp140Con-s (HIV-1); test: ELISA (OD 450 nm) on Cons gp140 (gp140Con-s), sCD4Fc titrated [A]
[14] = molecular target: HIV-1 Env of isolate GXC (HIV-1); test: cell-based or functional assay
[15] = molecular target: HIV-1 Env of isolate 89.6 (HIV-1); test: cell-based or functional assay
[16] = molecular target: HIV-1 Env of isolate JRCSF (HIV-1) (UniProt P20871); test: cell-based or functional assay
[17] = molecular target: HIV-1 Env of isolate GXE (HIV-1); test: cell-based or functional assay
[18] = molecular target: HIV-1 Env of isolate AD8 (HIV-1); test: cell-based or functional assay
[19] = molecular target: HIV-1 Env of isolate JRFL (HIV-1); test: cell-based or functional assay
[20] = molecular target: HIV-1 Env of isolate 92UG037.8 (HIV-1); test: cell-based or functional assay
[21] = molecular target: HIV-1 Env of isolate CM243 (HIV-1); test: cell-based or functional assay
[22] = molecular target: HIV-1 Env of isolate Bal (HIV-1); test: cell-based or functional assay
[23] = molecular target: HIV-1 Env of isolate NL4-3 (HIV-1); test: cell-based or functional assay
[24] = molecular target: HIV-1 Env of isolate Z2Z6 (HIV-1); test: cell-based or functional assay
[25] = molecular target: HIV-1 Env of isolate R2 (HIV-1); test: cell-based or functional assay
[26] = molecular target: HIV-1 Env of isolate IIIB (HIV-1); test: cell-based or functional assay

Chain of HIV-1 Env of isolate JRCSF (HIV-1) (P20871 32-848 limits assumed): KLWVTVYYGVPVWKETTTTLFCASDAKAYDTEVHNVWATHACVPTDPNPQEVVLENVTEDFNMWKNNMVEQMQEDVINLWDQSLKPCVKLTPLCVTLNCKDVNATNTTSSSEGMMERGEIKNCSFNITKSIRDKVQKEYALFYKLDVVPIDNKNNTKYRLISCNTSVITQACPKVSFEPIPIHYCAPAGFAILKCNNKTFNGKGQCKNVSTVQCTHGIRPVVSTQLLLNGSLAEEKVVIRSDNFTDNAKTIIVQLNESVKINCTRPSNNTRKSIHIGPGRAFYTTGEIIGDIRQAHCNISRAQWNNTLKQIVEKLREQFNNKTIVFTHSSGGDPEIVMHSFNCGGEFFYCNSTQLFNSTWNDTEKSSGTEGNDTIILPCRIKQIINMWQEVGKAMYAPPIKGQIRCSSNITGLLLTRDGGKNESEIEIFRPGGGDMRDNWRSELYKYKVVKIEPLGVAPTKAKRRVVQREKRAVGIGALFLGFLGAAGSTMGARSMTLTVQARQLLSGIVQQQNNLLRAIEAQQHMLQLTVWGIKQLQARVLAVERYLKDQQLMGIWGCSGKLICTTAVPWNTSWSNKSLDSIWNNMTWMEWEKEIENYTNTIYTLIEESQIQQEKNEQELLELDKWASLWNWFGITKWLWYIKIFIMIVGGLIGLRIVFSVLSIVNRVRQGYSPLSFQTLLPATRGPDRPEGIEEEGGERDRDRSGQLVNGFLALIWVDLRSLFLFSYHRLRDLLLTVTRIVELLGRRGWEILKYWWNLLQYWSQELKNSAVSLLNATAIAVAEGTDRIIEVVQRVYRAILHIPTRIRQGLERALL

Substance: b12 (antibody)
- IC50, neutralization in TZM-bl cell-based assay [1]: > 167 nM
- IC90, neutralization in TZM-bl cell-based assay [1]: > 167 nM
- IC50, neutralization in TZM-bl cell-based assay [2]: 81 nM
- IC90, neutralization in TZM-bl cell-based assay [2]: > 167 nM
- IC50, neutralization in TZM-bl cell-based assay [3]: 0.085 nM
- IC90, neutralization in TZM-bl cell-based assay [3]: 1.6 nM
- IC50, neutralization in TZM-bl cell-based assay [4]: 138 nM
- IC90, neutralization in TZM-bl cell-based assay [4]: > 167 nM
- IC50, neutralization in TZM-bl cell-based assay [5]: 117 nM
- IC90, neutralization in TZM-bl cell-based assay [5]: > 167 nM
- IC50, neutralization in TZM-bl cell-based assay [6]: 82 nM
- IC90, neutralization in TZM-bl cell-based assay [6]: > 167 nM
- IC90, neutralization in TZM-bl cell-based assay [7]: 30 nM
- IC50, neutralization in TZM-bl cell-based assay [8]: > 167 nM
- IC90, neutralization in TZM-bl cell-based assay [8]: > 167 nM
- IC50, neutralization in TZM-bl cell-based assay [9]: 4 nM
- IC90, neutralization in TZM-bl cell-based assay [9]: 19 nM
- IC90, neutralization in TZM-bl cell-based assay [10]: > 167 nM
- IC90, neutralization in TZM-bl cell-based assay [11]: 3.6 nM
- IC50, neutralization in TZM-bl cell-based assay [12]: 12 nM
- IC90, neutralization in TZM-bl cell-based assay [12]: > 167 nM

Substance: D1D2mFc (from UniProt P01730 26-203) (Fc fusion)
- EC50 (read off the curve) [13]: 0.3 nM

Substance: VRC01 (antibody)
- IC90, neutralization of pseudotyped HIV-1 [14]: 6.6 nM
- IC90, neutralization in TZM-bl cell-based assay [1]: 9.5 nM
- IC50, neutralization in TZM-bl cell-based assay [2]: 21 nM
- IC90, neutralization in TZM-bl cell-based assay [2]: > 167 nM
- IC50, neutralization of pseudotyped HIV-1 [15]: 0.37 nM
- IC50, neutralization of pseudotyped HIV-1 [16]: 0.28 nM
- IC90, neutralization of pseudotyped HIV-1 [16]: 5.6 nM
- IC50, neutralization of pseudotyped HIV-1 [17]: 2 nM
- IC90, neutralization of pseudotyped HIV-1 [17]: 26 nM
- IC50, neutralization of pseudotyped HIV-1 [18]: 0.36 nM
- IC90, neutralization of pseudotyped HIV-1 [18]: 4.3 nM
- IC50, neutralization of pseudotyped HIV-1 [19]: 0.31 nM
- IC90, neutralization of pseudotyped HIV-1 [19]: 0.82 nM
- IC50, neutralization of pseudotyped HIV-1 [20]: 0.33 nM
- IC90, neutralization of pseudotyped HIV-1 [20]: 3.8 nM
- IC50, neutralization of pseudotyped HIV-1 [21]: 0.53 nM
- IC90, neutralization of pseudotyped HIV-1 [21]: 9.5 nM
- IC50, neutralization in TZM-bl cell-based assay [3]: > 167 nM
- IC90, neutralization in TZM-bl cell-based assay [3]: > 167 nM
- IC50, neutralization in TZM-bl cell-based assay [4]: 4.2 nM
- IC50, inhibition of Env-mediated cell-cell fusion [22]: 2.6 nM
- IC50, neutralization of pseudotyped HIV-1 [22]: 0.11 nM
- IC90, inhibition of Env-mediated cell-cell fusion [22]: 24 nM
- IC90, neutralization of pseudotyped HIV-1 [22]: 0.56 nM
- IC50, neutralization of pseudotyped HIV-1 [23]: 0.25 nM
- IC90, neutralization of pseudotyped HIV-1 [23]: 2.6 nM
- IC50, neutralization in TZM-bl cell-based assay [5]: 3 nM
- IC50, neutralization in TZM-bl cell-based assay [6]: 0.66 nM
- IC50, neutralization in TZM-bl cell-based assay [7]: > 167 nM
- IC90, neutralization in TZM-bl cell-based assay [7]: > 167 nM
- IC50, neutralization of pseudotyped HIV-1 [24]: 0.11 nM
- IC90, neutralization of pseudotyped HIV-1 [24]: 0.85 nM
- IC50, neutralization of pseudotyped HIV-1 [25]: 0.34 nM
- IC90, neutralization of pseudotyped HIV-1 [25]: 4.4 nM
- IC50, neutralization in TZM-bl cell-based assay [8]: 0.33 nM
- IC90, neutralization in TZM-bl cell-based assay [8]: 2.6 nM
- IC90, neutralization in TZM-bl cell-based assay [9]: 10 nM
- IC90, neutralization in TZM-bl cell-based assay [10]: 31 nM
- IC50, neutralization in TZM-bl cell-based assay [11]: 0.39 nM
- IC90, neutralization in TZM-bl cell-based assay [11]: 5.2 nM
- IC50, neutralization in TZM-bl cell-based assay [12]: 1.3 nM
- IC90, neutralization in TZM-bl cell-based assay [12]: 6 nM
- IC50, neutralization of pseudotyped HIV-1 [26]: 0.26 nM
- IC90, neutralization of pseudotyped HIV-1 [26]: 0.83 nM
